{"source": "the supplement of paper PMC11316812", "key": {"[1]": {"tested_on": "hTERT-HMEC", "assay": "percentage of EdU-negative (G0-arrested) nuclei per well, 72 h; higher = more G0 arrest", "settings": "reference: sequence is the full UniProt precursor, the tested protein was the secreted form or ectodomain"}, "[2]": {"tested_on": "MCF7", "assay": "percentage of EdU-negative (G0-arrested) nuclei per well, 72 h; higher = more G0 arrest", "settings": "reference: sequence is the full UniProt precursor, the tested protein was the secreted form or ectodomain"}, "[3]": {"settings": "protein concentration 0.0225 µM"}, "[4]": {"settings": "protein concentration 0.0272075 µM"}, "[5]": {"settings": "protein concentration 0.272075 µM"}, "[6]": {"settings": "protein concentration 0.03125 µM"}, "[7]": {"settings": "protein concentration 0.3125 µM"}, "[8]": {"settings": "protein concentration 0.0117143 µM"}, "[9]": {"settings": "protein concentration 0.117143 µM"}, "[10]": {"settings": "protein concentration 0.0215 µM"}}, "note": "± gives the standard deviation of the averaged measurements.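 Also: secreted proteins added to cultured cells, EdU pulse at the end, nuclei found by Hoechst imaging, EdU status from nuclear versus surrounding ring intensity ratio, PBS as neutral control.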", "data": [{"sequence": "MAQHHLWILLLCLQTWPEAAGKDSEIFTVNGILGESVTFPVNIQEPRQVKIIAWTSKTSVAYVTPGDSETAPVVTVTHRNYYERIHALGPNYNLVISDLRMEDAGDYKADINTQADPYTTTKRYNLQIYRRLGKPKITQSLMASVNSTCNVTLTCSVEKEEKNVTYNWSPLGEEGNVLQIFQTPEDQELTYTCTAQNPVSNNSDSISARQLCADIAMGFRTHHTGLLSVLAMFFLLVLILSSVFLFRLFKRRQGRIFPEGSCLNTFTKNPYAASKKTIYTYIMASRNTQPAESRIYDEILQSKVLPSKEEPVNTVYSEVQFADKMGKASTQDSKPPGTSSYEIVI [Q9UIB8]", "values": [{"measurement": "percentage of EdU-negative", "setting": "[1]; [3]", "value": "4.54 ± 0.35", "unit": "%"}, {"measurement": "percentage of EdU-negative", "setting": "[1]; protein concentration 0.225 µM", "value": "5.92 ± 0.51", "unit": "%"}, {"measurement": "percentage of EdU-negative", "setting": "[2]; [3]", "value": "27.3 ± 3", "unit": "%"}, {"measurement": "percentage of EdU-negative", "setting": "[2]; protein concentration 0.225 µM", "value": "26.8 ± 1.5", "unit": "%"}]}, {"sequence": "MTATEALLRVLLLLLAFGHSTYGAECFPACNPQNGFCEDDNVCRCQPGWQGPLCDQCVTSPGCLHGLCGEPGQCICTDGWDGELCDRDVRACSSAPCANNRTCVSLDDGLYECSCAPGYSGKDCQKKDGPCVINGSPCQHGGTCVDDEGRASHASCLCPPGFSGNFCEIVANSCTPNPCENDGVCTDIGGDFRCRCPAGFIDKTCSRPVTNCASSPCQNGGTCLQHTQVSYECLCKPEFTGLTCVKKRALSPQQVTRLPSGYGLAYRLTPGVHELPVQQPEHRILKVSMKELNKKTPLLTEGQAICFTILGVLTSLVVLGTVGIVFLNKCETWVSNLRYNHMLRKKKNLLLQYNSGEDLAVNIIFPEKIDMTTFSKEAGDEEI", "values": [{"measurement": "percentage of EdU-negative", "setting": "[1]; [4]", "value": "4.9 ± 0.42", "unit": "%"}, {"measurement": "percentage of EdU-negative", "setting": "[1]; [5]", "value": "6.02 ± 1.2", "unit": "%"}, {"measurement": "percentage of EdU-negative", "setting": "[2]; [4]", "value": "27.1 ± 2.7", "unit": "%"}, {"measurement": "percentage of EdU-negative", "setting": "[2]; [5]", "value": "26.7 ± 1.4", "unit": "%"}]}, {"sequence": "MGLQACLLGLFALILSGKCSYSPEPDQRRTLPPGWVSLGRADPEEELSLTFALRQQNVERLSELVQAVSDPSSPQYGKYLTLENVADLVRPSPLTLHTVQKWLLAAGAQKCHSVITQDFLTCWLSIRQAELLLPGAEFHHYVGGPTETHVVRSPHPYQLPQALAPHVDFVGGLHRFPPTSSLRQRPEPQVTGTVGLHLGVTPSVIRKRYNLTSQDVGSGTSNNSQACAQFLEQYFHDSDLAQFMRLFGGNFAHQASVARVVGQQGRGRAGIEASLDVQYLMSAGANISTWVYSSPGRHEGQEPFLQWLMLLSNESALPHVHTVSYGDDEDSLSSAYIQRVNTELMKAAARGLTLLFASGDSGAGCWSVSGRHQFRPTFPASSPYVTTVGGTSFQEPFLITNEIVDYISGGGFSNVFPRPSYQEEAVTKFLSSSPHLPPSSYFNASGRAYPDVAALSDGYWVVSNRVPIPWVSGTSASTPVFGGILSLINEHRILSGRPPLGFLNPRLYQQHGAGLFDVTRGCHESCLDEEVEGQGFCSGPGWDPVTGWGTPNFPALLKTLLNP", "values": [{"measurement": "percentage of EdU-negative", "setting": "[1]; [3]", "value": "5.11 ± 0.24", "unit": "%"}, {"measurement": "percentage of EdU-negative", "setting": "[1]; protein concentration 0.225 µM", "value": "10.72 ± 0.011", "unit": "%"}, {"measurement": "percentage of EdU-negative", "setting": "[2]; [3]", "value": "25.3 ± 1.4", "unit": "%"}, {"measurement": "percentage of EdU-negative", "setting": "[2]; protein concentration 0.225 µM", "value": "27.9 ± 4.2", "unit": "%"}]}, {"sequence": "MRRMWATQGLAVALALSVLPGSRALRPGDCEVCISYLGRFYQDLKDRDVTFSPATIENELIKFCREARGKENRLCYYIGATDDAATKIINEVSKPLAHHIPVEKICEKLKKKDSQICELKYDKQIDLSTVDLKKLRVKELKKILDDWGETCKGCAEKSDYIRKINELMPKYAPKAASARTDL", "values": [{"measurement": "percentage of EdU-negative", "setting": "[1]; [6]", "value": "5.21 ± 0.51", "unit": "%"}, {"measurement": "percentage of EdU-negative", "setting": "[1]; [7]", "value": "6.6 ± 0.2", "unit": "%"}, {"measurement": "percentage of EdU-negative", "setting": "[2]; [6]", "value": "25.9 ± 1.2", "unit": "%"}, {"measurement": "percentage of EdU-negative", "setting": "[2]; [7]", "value": "24.8 ± 3.6", "unit": "%"}]}, {"sequence": "MKMMLVRRFRVLILMVFLVACALHIALDLLPRLERRGARPSGEPGCSCAQPAAEVAAPGWAQVRGRPGEPPAASSAAGDAGWPNKHTLRILQDFSSDPSSNLSSHSLEKLPPAAEPAERALRGRDPGALRPHDPAHRPLLRDPGPRRSESPPGPGGDASLLARLFEHPLYRVAVPPLTEEDVLFNVNSDTRLSPKAAENPDWPHAGAEGAEFLSPGEAAVDSYPNWLKFHIGINRYELYSRHNPAIEALLHDLSSQRITSVAMKSGGTQLKLIMTFQNYGQALFKPMKQTREQETPPDFFYFSDYERHNAEIAAFHLDRILDFRRVPPVAGRMVNMTKEIRDVTRDKKLWRTFFISPANNICFYGECSYYCSTEHALCGKPDQIEGSLAAFLPDLSLAKRKTWRNPWRRSYHKRKKAEWEVDPDYCEEVKQTPPYDSSHRILDVMDMTIFDFLMGNMDRHHYETFEKFGNETFIIHLDNGRGFGKYSHDELSILVPLQQCCRIRKSTYLRLQLLAKEEYKLSLLMAESLRGDQVAPVLYQPHLEALDRRLRVVLKAVRDCVERNGLHSVVDDDLDTEHRAASAR [Q8IXL6]", "values": [{"measurement": "percentage of EdU-negative", "setting": "[1]; [8]", "value": "5.97 ± 0.7", "unit": "%"}, {"measurement": "percentage of EdU-negative", "setting": "[1]; [9]", "value": "6.51 ± 0.12", "unit": "%"}, {"measurement": "percentage of EdU-negative", "setting": "[2]; [8]", "value": "23.5 ± 2.4", "unit": "%"}, {"measurement": "percentage of EdU-negative", "setting": "[2]; [9]", "value": "24.2 ± 0.32", "unit": "%"}]}, {"sequence": "MATMENKVICALVLVSMLALGTLAEAQTETCTVAPRERQNCGFPGVTPSQCANKGCCFDDTVRGVPWCFYPNTIDVPPEEECEF", "values": [{"measurement": "percentage of EdU-negative", "setting": "[1]; [10]", "value": "4.62 ± 0.35", "unit": "%"}, {"measurement": "percentage of EdU-negative", "setting": "[1]; protein concentration 0.215 µM", "value": "5.31 ± 0.26", "unit": "%"}, {"measurement": "percentage of EdU-negative", "setting": "[2]; [10]", "value": "25.09 ± 0.25", "unit": "%"}, {"measurement": "percentage of EdU-negative", "setting": "[2]; protein concentration 0.215 µM", "value": "25 ± 1.6", "unit": "%"}]}]}
